Test results reported in PMC6335420, “The cell cycle regulator GpsB functions as cytosolic adaptor for multiple cell wall enzymes” (Nature Communications, 2019).
Read-outs that look alike come from different tables or passages of the source. Residues, ends and D or L forms follow the SMILES beside them. No end group written: not given here. *: point of attachment. X1 = CN(C)c1ccc2c(-c3ccc(N4C(=O)CC(*)C4=O)cc3C(=O)[O-])c3ccc(=[N+](C)C)cc-3oc2c1; fluorescein‑maleimide = fluorescein attached via maleimide to Cys

T1: BsGpsB1-68 (B. subtilis, UniProt P0CI74 1-68)
T1 construct: GpsB, Bacillus subtilis, residues 1-68 (N-terminal domain); also called N-terminal domain of B. subtilis GpsB; wildtype BsGpsB1-68; source: E. coli BL21(DE3), purified (Ni-NTA, thrombin removal of the His6-tag, SEC); not shown: His6, N-terminal, cleaved
T1 sequence (looked up): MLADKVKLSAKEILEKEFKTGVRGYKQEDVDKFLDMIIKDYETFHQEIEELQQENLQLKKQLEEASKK

B1: Fluorescein-BsPBP11-32 Ala10Pro (peptide)
peptide: GSMADQFNSREPRRKANSKSSPSPKKGKKRKKC(fluorescein‑maleimide)G
notes: non-native N-terminal residues left by the recombinant method; PBP1 (ponA), Bacillus subtilis, residues 1-32; also called 31-labelled BsPBP1 1-32 A10P
B2: TAMRA-BsPBP11-32 Arg8Lys (peptide)
peptide: GSMADQFNSKEARRKANC(TAMRA‑maleimide)KSSPSPKKGKKRKKGG
notes: non-native N-terminal residues left by the recombinant method; PBP1 (ponA), Bacillus subtilis, residues 1-32; also called BsPBP1 1-32 R8K
B3: Fluorescein-BsPBP11-32 wildtype (peptide)
peptide: GSMADQFNSREARRKANSKSSPSPKKGKKRKKC(fluorescein‑maleimide)G
notes: non-native N-terminal residues left by the recombinant method; PBP1 (ponA), Bacillus subtilis, residues 1-32, cytoplasmic mini-domain; also called BsPBP1 1-32 labelled with fluorescein at residue 31; 31-labelled peptide
B4: TAMRA-BsPBP11-32 Arg11Ala (peptide)
peptide: GSMADQFNSREAARKANC(TAMRA‑maleimide)KSSPSPKKGKKRKKGG
notes: non-native N-terminal residues left by the recombinant method; PBP1 (ponA), Bacillus subtilis, residues 1-32; also called BsPBP1 1-32 R11A
B5: TAMRA-BsPBP11-32 Ala10Pro (peptide)
peptide: GSMADQFNSREPRRKANC(TAMRA‑maleimide)KSSPSPKKGKKRKKGG
notes: non-native N-terminal residues left by the recombinant method; PBP1 (ponA), Bacillus subtilis, residues 1-32; also called BsPBP1 1-32 A10P
B6: TAMRA-BsPBP11-32 Arg28Ala (peptide)
peptide: GSMADQFNSREARRKANC(TAMRA‑maleimide)KSSPSPKKGKKAKKGG
notes: non-native N-terminal residues left by the recombinant method; PBP1 (ponA), Bacillus subtilis, residues 1-32; also called BsPBP1 1-32 R28A
B7: TAMRA-BsPBP11-32 Arg8Ala (peptide)
peptide: GSMADQFNSAEARRKANC(TAMRA‑maleimide)KSSPSPKKGKKRKKGG
notes: non-native N-terminal residues left by the recombinant method; PBP1 (ponA), Bacillus subtilis, residues 1-32; also called BsPBP1 1-32 R8A
B8: Fluorescein-BsPBP11-32 Arg28Ala (peptide)
peptide: GSMADQFNSREARRKANSKSSPSPKKGKKAKKC(fluorescein‑maleimide)G
notes: non-native N-terminal residues left by the recombinant method; PBP1 (ponA), Bacillus subtilis, residues 1-32; also called 31-labelled BsPBP1 1-32 R28A
B9: TAMRA-BsPBP11-32 Ser7Ala (peptide)
peptide: GSMADQFNAREARRKANC(TAMRA‑maleimide)KSSPSPKKGKKRKKGG
notes: non-native N-terminal residues left by the recombinant method; PBP1 (ponA), Bacillus subtilis, residues 1-32; also called BsPBP1 1-32 S7A
B10: Fluorescein-BsPBP11-32 Arg8Ala (peptide)
peptide: GSMADQFNSAEARRKANSKSSPSPKKGKKRKKC(fluorescein‑maleimide)G
notes: non-native N-terminal residues left by the recombinant method; PBP1 (ponA), Bacillus subtilis, residues 1-32; also called 31-labelled BsPBP1 1-32 R8A

Columns and labels:
BsGpsB1-68 [1] = target: T2, BsGpsB1-68 (Bacillus subtilis, UniProt P0CI74); type: binding; conditions: FP; for reduction in affinity for BsGpsB1-68: relative to wild-type peptide
T2 construct: His6 (N, cleaved yes); made in house; host or cells: E. coli BL21(DE3)
Source text: 75 the BsGpsB5-64:BsPBP11-17 complex.

[2] = Circular dichroism of PBP peptides (helicity); type: physicochemical
Experimental: CD spectra were recorded on a JASCO J-810 spectropolarimeter with a PTC-4235 Peltier temperature controller using 1 mm path length quartz cuvettes. For full wavelength scans a scan speed of 10 nm^−1min^−1 and a response time of 4 s were used, the final spectra were the average of at least four measurements. BsPBP1_1-32 CD spectra were recorded at 4 °C in a buffer of 20 mM sodium phosphate, pH 7.3 at a peptide concentration of 25 μM. Peptide helical contents were estimated from molar ellipticities at 222 nm using the equation helix = [θ]222 nm / (39,500(1–2.57/n))[78] where n is the number of residues in the peptide. LmPBPA1_1-15 CD spectra were analysed at 40 μM in 20 mM sodium phosphate buffer, pH 7.8, for samples containing 0, 40 and 60% trifluoroethanol (TFE). For samples containing 80% TFE, 5 mM sodium phosphate buffer, pH 7.8, was used. The CD spectra of BsGpsB1-68 proteins were measured at a concentration of 4.5 μM in a buffer of 20 mM sodium phosphate (pH 7.8) 150 mM NaCl. For thermal melt experiments, a response time of 8 s and scan rate of 1 °C^−1min^−1 were used. All thermal melts were reversible as CD spectra recorded before and after the melts in the wavelength range 200–240 nm could be superimposed.

BsGpsB1-68 [3] = target: T1, BsGpsB1-68; assay: fluorescence polarisation; GpsB protein titrated into TAMRA- or fluorescein-labelled peptide; 10 mM Tris.HCl pH 8.0, 250 mM NaCl, 0.1% reduced Triton X-100; all data fitted to a 1:1 interaction model, Kd ± standard error; conditions: both partners purified

Molecule	Kd (BsGpsB1-68 [3]) [µM]	also measured
CSCC[C@H](NC(=O)[C@H](CO)NC(=O)CN)C(=O)N[C@@H](C)C(=O)N[C@@H](CC(=O)O)C(=O)N[C@@H](CCC(N)=O)C(=O)N[C@@H](Cc1ccccc1)C(=O)N[C@@H](CC(N)=O)C(=O)N[C@@H](CO)C(=O)N[C@@H](CCCNC(=N)N)C(=O)N[C@@H](CCC(=O)O)C(=O)N[C@@H](C)C(=O)N[C@@H](C)C(=O)N[C@@H](CCCNC(=N)N)C(=O)N[C@@H](CCCCN)C(=O)N[C@@H](C)C(=O)N[C@@H](CC(N)=O)C(=O)N[C@@H](CSC1CC(=O)N(c2ccc(-c3c4ccc(=[N+](C)C)cc-4oc4cc(N(C)C)ccc34)c(C(=O)[O-])c2)C1=O)C(=O)N[C@@H](CCCCN)C(=O)N[C@@H](CO)C(=O)N[C@@H](CO)C(=O)N1CCC[C@H]1C(=O)N[C@@H](CO)C(=O)N1CCC[C@H]1C(=O)N[C@@H](CCCCN)C(=O)N[C@@H](CCCCN)C(=O)NCC(=O)N[C@@H](CCCCN)C(=O)N[C@@H](CCCCN)C(=O)N[C@@H](CCCNC(=N)N)C(=O)N[C@@H](CCCCN)C(=O)N[C@@H](CCCCN)C(=O)NCC(=O)NCC(=O)O (stereo partly shown) [TAMRA-BsPBP11-32 Arg11Ala] (H-GSMADQFNSREAARKANC(X1)KSSPSPKKGKKRKKGG-OH)		reduction in affinity for BsGpsB1-68 (BsGpsB1-68 [1]): at least 5 fold
CSCC[C@H](NC(=O)[C@H](CO)NC(=O)CN)C(=O)N[C@@H](C)C(=O)N[C@@H](CC(=O)O)C(=O)N[C@@H](CCC(N)=O)C(=O)N[C@@H](Cc1ccccc1)C(=O)N[C@@H](CC(N)=O)C(=O)N[C@@H](CO)C(=O)N[C@@H](CCCNC(=N)N)C(=O)N[C@@H](CCC(=O)O)C(=O)N[C@@H](C)C(=O)N[C@@H](CCCNC(=N)N)C(=O)N[C@@H](CCCNC(=N)N)C(=O)N[C@@H](CCCCN)C(=O)N[C@@H](C)C(=O)N[C@@H](CC(N)=O)C(=O)N[C@@H](CSC1CC(=O)N(c2ccc(-c3c4ccc(=[N+](C)C)cc-4oc4cc(N(C)C)ccc34)c(C(=O)[O-])c2)C1=O)C(=O)N[C@@H](CCCCN)C(=O)N[C@@H](CO)C(=O)N[C@@H](CO)C(=O)N1CCC[C@H]1C(=O)N[C@@H](CO)C(=O)N1CCC[C@H]1C(=O)N[C@@H](CCCCN)C(=O)N[C@@H](CCCCN)C(=O)NCC(=O)N[C@@H](CCCCN)C(=O)N[C@@H](CCCCN)C(=O)N[C@@H](C)C(=O)N[C@@H](CCCCN)C(=O)N[C@@H](CCCCN)C(=O)NCC(=O)NCC(=O)O (stereo partly shown) [TAMRA-BsPBP11-32 Arg28Ala] (H-GSMADQFNSREARRKANC(X1)KSSPSPKKGKKAKKGG-OH)		binding to BsGpsB1-68 (in words) (BsGpsB1-68 [1]): no effect on binding
CSCC[C@H](NC(=O)[C@H](CO)NC(=O)CN)C(=O)N[C@@H](C)C(=O)N[C@@H](CC(=O)O)C(=O)N[C@@H](CCC(N)=O)C(=O)N[C@@H](Cc1ccccc1)C(=O)N[C@@H](CC(N)=O)C(=O)N[C@@H](CO)C(=O)N[C@@H](CCCNC(=N)N)C(=O)N[C@@H](CCC(=O)O)C(=O)N1CCC[C@H]1C(=O)N[C@@H](CCCNC(=N)N)C(=O)N[C@@H](CCCNC(=N)N)C(=O)N[C@@H](CCCCN)C(=O)N[C@@H](C)C(=O)N[C@@H](CC(N)=O)C(=O)N[C@@H](CSC1CC(=O)N(c2ccc(-c3c4ccc(=[N+](C)C)cc-4oc4cc(N(C)C)ccc34)c(C(=O)[O-])c2)C1=O)C(=O)N[C@@H](CCCCN)C(=O)N[C@@H](CO)C(=O)N[C@@H](CO)C(=O)N1CCC[C@H]1C(=O)N[C@@H](CO)C(=O)N1CCC[C@H]1C(=O)N[C@@H](CCCCN)C(=O)N[C@@H](CCCCN)C(=O)NCC(=O)N[C@@H](CCCCN)C(=O)N[C@@H](CCCCN)C(=O)N[C@@H](CCCNC(=N)N)C(=O)N[C@@H](CCCCN)C(=O)N[C@@H](CCCCN)C(=O)NCC(=O)NCC(=O)O (stereo partly shown) [TAMRA-BsPBP11-32 Ala10Pro] (H-GSMADQFNSREPRRKANC(X1)KSSPSPKKGKKRKKGG-OH)		helical residues corresponding to helical content ([2]; CD, 222 nm, 4 °C, 20 mM sodium phosphate pH 7.3, 25 μM peptide): one; α-helical content ([2]; CD, 222 nm, 4 °C, 20 mM sodium phosphate pH 7.3, 25 μM peptide, average of at least four measurements): 2%; secondary structure by CD (in words) ([2]; LmPBPA1 peptides 40 μM, 20 mM sodium phosphate pH 7.8, TFE 0-80% (5 mM phosphate at 80%), BsPBP1_1-32 peptides 25 μM, pH 7.3, 4 °C): mostly random coil; reduction in affinity for BsGpsB1-68 (BsGpsB1-68 [1]; listed as BsPBP1_1-32^Ala10Pro): at least 6 fold; reduction in affinity for BsGpsB1-68 (BsGpsB1-68 [1]; listed as BsPBP11-32Ala10Pro): > 8 fold
CSCC[C@H](NC(=O)[C@H](CO)NC(=O)CN)C(=O)N[C@@H](C)C(=O)N[C@@H](CC(=O)O)C(=O)N[C@@H](CCC(N)=O)C(=O)N[C@@H](Cc1ccccc1)C(=O)N[C@@H](CC(N)=O)C(=O)N[C@@H](CO)C(=O)N[C@@H](C)C(=O)N[C@@H](CCC(=O)O)C(=O)N[C@@H](C)C(=O)N[C@@H](CCCNC(=N)N)C(=O)N[C@@H](CCCNC(=N)N)C(=O)N[C@@H](CCCCN)C(=O)N[C@@H](C)C(=O)N[C@@H](CC(N)=O)C(=O)N[C@@H](CSC1CC(=O)N(c2ccc(-c3c4ccc(=[N+](C)C)cc-4oc4cc(N(C)C)ccc34)c(C(=O)[O-])c2)C1=O)C(=O)N[C@@H](CCCCN)C(=O)N[C@@H](CO)C(=O)N[C@@H](CO)C(=O)N1CCC[C@H]1C(=O)N[C@@H](CO)C(=O)N1CCC[C@H]1C(=O)N[C@@H](CCCCN)C(=O)N[C@@H](CCCCN)C(=O)NCC(=O)N[C@@H](CCCCN)C(=O)N[C@@H](CCCCN)C(=O)N[C@@H](CCCNC(=N)N)C(=O)N[C@@H](CCCCN)C(=O)N[C@@H](CCCCN)C(=O)NCC(=O)NCC(=O)O (stereo partly shown) [TAMRA-BsPBP11-32 Arg8Ala] (H-GSMADQFNSAEARRKANC(X1)KSSPSPKKGKKRKKGG-OH)		reduction in affinity for BsGpsB1-68 (BsGpsB1-68 [1]): at least 5 fold
CSCC[C@H](NC(=O)[C@H](CO)NC(=O)CN)C(=O)N[C@@H](C)C(=O)N[C@@H](CC(=O)O)C(=O)N[C@@H](CCC(N)=O)C(=O)N[C@@H](Cc1ccccc1)C(=O)N[C@@H](CC(N)=O)C(=O)N[C@@H](CO)C(=O)N[C@@H](CCCCN)C(=O)N[C@@H](CCC(=O)O)C(=O)N[C@@H](C)C(=O)N[C@@H](CCCNC(=N)N)C(=O)N[C@@H](CCCNC(=N)N)C(=O)N[C@@H](CCCCN)C(=O)N[C@@H](C)C(=O)N[C@@H](CC(N)=O)C(=O)N[C@@H](CSC1CC(=O)N(c2ccc(-c3c4ccc(=[N+](C)C)cc-4oc4cc(N(C)C)ccc34)c(C(=O)[O-])c2)C1=O)C(=O)N[C@@H](CCCCN)C(=O)N[C@@H](CO)C(=O)N[C@@H](CO)C(=O)N1CCC[C@H]1C(=O)N[C@@H](CO)C(=O)N1CCC[C@H]1C(=O)N[C@@H](CCCCN)C(=O)N[C@@H](CCCCN)C(=O)NCC(=O)N[C@@H](CCCCN)C(=O)N[C@@H](CCCCN)C(=O)N[C@@H](CCCNC(=N)N)C(=O)N[C@@H](CCCCN)C(=O)N[C@@H](CCCCN)C(=O)NCC(=O)NCC(=O)O (stereo partly shown) [TAMRA-BsPBP11-32 Arg8Lys] (H-GSMADQFNSKEARRKANC(X1)KSSPSPKKGKKRKKGG-OH)		reduction in affinity for BsGpsB1-68 (BsGpsB1-68 [1]): at least 5 fold
B1	> 500	
B2	> 2000	
B3	100	
B4	> 600	
B5	> 1000	
B6	90	
B7	> 1700	
B8	130	
B9	> 700	
B10	> 500	
